Laboratory results from publication PMC7914713, “Elucidating the Importance of DOT1L Recruitment in MLL-AF9 Leukemia and Hematopoiesis” (Cancers, 2021).

Target: T1, MBP-AF9 (MBP carrier left out. The construct limits are not given; the C-terminal ANC1 homology domain (AHD), named as the DOT1L-binding domain, is taken by convention as about 500-568.)
T1 chain: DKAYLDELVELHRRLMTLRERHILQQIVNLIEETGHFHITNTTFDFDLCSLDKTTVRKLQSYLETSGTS
Test: fluorescence polarisation; competitive: serial dilutions of peptide with fixed MBP-AF9 (200 nM) and N-Flu-DOT1L (10 nM); 100 mM NaH2PO4, 150 mM NaCl, 0.1% β-ME, 0.01% Triton X-100; room temperature, 3 h
Conditions: both partners purified

Ki: 20 nM
B1: DOT1L WT 10mer (865–874) peptide (peptide, UniProt Q8TEK3 865-874, looked up)
peptide: LPISIPLSTV
notes: the DOT1L constructs of the cell lines are human; also called 10mer peptide from residues 865–874; 10mer DOT1L peptide; source: synthetic peptide
